Test results published in US20030044896.

T1: Mas-DH[K22Q]+Gly
T1 chain: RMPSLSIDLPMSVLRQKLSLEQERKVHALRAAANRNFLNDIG

T2: Mas-DH+Gly (42 amino acid precursor of Manduca sexta diuretic hormone)
T2 chain: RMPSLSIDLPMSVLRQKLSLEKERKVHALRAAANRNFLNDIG


Assays:
[1] = molecular target: T1, Mas-DH[K22Q]+Gly
[2] = molecular target: T2, Mas-DH+Gly (42 amino acid precursor of …)

Protein | proteolytic fragments recovered from culture medium of the mkc7 deletion strain HKY21[pKSC3] (RPLC, ESI-MS) [1] | proteolytic fragments recovered from culture medium of protease deletion strains (RPLC, ESI-MS) [2] | proteolytic fragments recovered from culture medium of the yap3 deletion strain HKY20[pKSC3] (RPLC, ESI-MS) [1]
Yap3 endoprotease (Yeast Aspartyl Protease 3, encoded by YAP3) (protein) ADGYEEIIITNQQSFYSVDLEVGTPPQNVTVLVDTGSSDLWIMGSDNPYCSSNSMGSSRRRVIDKRDDSSSGGSLINDINPFGWLTGTGSAIGPTATGLGGGSGTATQSVPASEATMDCQQYGTFSTSGSSTFRSNNTYFSISYGDGTFASGTFGTDVLDLSDLNVTGLSFAVANETNSTMGVLGIGLPELEVTYSGSTASHSGKAYKYDNFPIVLKNSGAIKSNTYSLYLNDSDAMHGTILFGAVDHSKYTGTLYTIPIVNTLSASGFSSPIQFDVTINGIGISDSGSSNKTLTTTKIPALLDSGTTLTYLPQTVVSMIATELGAQYSSRIGYYVLDCPSDDSMEIVFDFGGFHINAPLSSFILSTGTTCLLGIIPTSDDTGTILGDSFLTNAYVVYDLENLEISMAQARYNTTSENIEIITSSVPSAVKAPGYTNTWSTSASIVTGGNIFTVNSSQTASFSGNLTTSTASATSTSSKRN | suggesting that Yap3 cleaved after Arg at the two sites E R ↓ K V and L R ↓ Q K | both Yap3 and Mkc7 are capable of contributing to the cleavage of Mas-DH+Gly at the Lys^22 residue, as well as at other sites | –
Mkc7 endoprotease (encoded by MKC7) (protein) DDDYELVELTNQNSFYSVELDIGTPPQKVTVLVDTGSSDLWVTGSDNPYCSTKKKDTTGSSFKQVNKDALASVVESVFTEISYDTTIVTSEATATFDSTASTSQLIDCATYGTFNTSKSSTFNSNNTEFSIAYGDTTFASGTWGHDQLSLNDLNITGLSFAVANETNSTVGVLGIGLPGLESTYSGVSLSSVQKSYTYNNFPMVLKNSGVIKSTAYSLFANDSDSKHGTILFGAVDHGKYAGDLYTIPIINTLQHRGYKDPIQFQVTLQGLGTSKGDKEDNLTTLTTTKIPVLLDSGTTISYMPTELVKMLADQVGATYSSAYGYYIMDCIKEMEEESSIIFDFGGFYLSNWLSDFQLVTDSRSNICILGIAPQSDPTIILGDNFLANTYVVYDLDNMEISMAQANFSDDGEYIEIIESAVPSALKAPGYSSTWSTYESIVSGGNMFSTAANSSISYFASTSHSATSSSSSKGQKTQTSTTALSISKSTSSTSSTGMLSPTSSSSTRKEN | – | both Yap3 and Mkc7 are capable of contributing to the cleavage of Mas-DH+Gly at the Lys^22 residue, as well as at other sites | suggesting that Mkc7 cleaved after Lys^25
